According to PMC5856539:

Target: GFP-tagged Ska complex (Ska complex^Ska3-GFP) (human) (UniProt Q96BD8)
Experiment: SEC-MALS

stoichiometry N: 2
Substance: GFP-tagged Ska complex (Ska complex^Ska3-GFP) (from UniProt Q96BD8;Q8WVK7;Q8IX90)
